T1: FcγRIIa H (human, UniProt P12318 34-217)
T1 construct: extracellular domain; also called FcγRIIa type H; 2aH
T1 sequence (looked up): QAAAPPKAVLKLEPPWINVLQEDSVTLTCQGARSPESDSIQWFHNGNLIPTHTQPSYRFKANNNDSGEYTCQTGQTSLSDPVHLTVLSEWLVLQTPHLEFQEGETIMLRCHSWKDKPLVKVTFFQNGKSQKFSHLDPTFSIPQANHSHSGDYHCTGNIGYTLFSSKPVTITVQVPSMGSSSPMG

T2: FcγRIIb (human, UniProt P31994 43-217)
T2 construct: extracellular domain; also called 2b
T2 sequence (looked up): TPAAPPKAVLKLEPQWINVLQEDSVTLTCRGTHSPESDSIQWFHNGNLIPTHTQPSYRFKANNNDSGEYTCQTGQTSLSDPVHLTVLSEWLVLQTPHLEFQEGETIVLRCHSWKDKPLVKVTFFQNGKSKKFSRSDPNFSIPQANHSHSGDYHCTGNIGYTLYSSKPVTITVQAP

B1: GpH7-A5/GpH7-B3 variant K326_04F/GpL16-k0 (antibody, human IgG1, kappa)
heavy 1: not shown
heavy 2: not shown
light: DIVMTQSPLSLPVTPGEPASISCQASESLVHSNRNTYLHWYLQKPGQSPQLLIYKVSNRFSGVPDRFSGSGSGTDFTLKISRVEAEDVGVYYCSQNTHVPPTFGQGTKVEIERTVAAPSVFIFPPSDEQLKSGTASVVCLLNNFYPREAKVQWKVDNALQSGNSQESVTEQDSKDSTYSLSSTLTLSKADYEKHKVYACEVTHQGLSSPVTKSFNRGEC
notes: heterodimerized IgG1, mutation in one H chain only; also called He Ab
B2: GpH7-A5/GpH7-B3 variant K326_05P/GpL16-k0 (antibody, human IgG1, kappa)
heavy 1: not shown
heavy 2: not shown
light: B1 light
notes: as for B1
B3: GpH7-A5/GpH7-B3 variant P271_01G/GpL16-k0 (antibody, human IgG1, kappa)
heavy 1: not shown
heavy 2: not shown
light: B1 light
notes: as for B1
B4: GpH7-A5/GpH7-B3 variant P271_09D/GpL16-k0 (antibody, human IgG1, kappa)
heavy 1: not shown
heavy 2: not shown
light: B1 light
notes: as for B1
B5: GpH7-A5/GpH7-B3 variant P271_10E/GpL16-k0 (antibody, human IgG1, kappa)
heavy 1: not shown
heavy 2: not shown
light: B1 light
notes: as for B1
B6: GpH7-A5/GpH7-B3 variant P271_14T/GpL16-k0 (antibody, human IgG1, kappa)
heavy 1: not shown
heavy 2: not shown
light: B1 light
notes: as for B1
B7: GpH7-A5/GpH7-B3 variant S267_02A/GpL16-k0 (antibody, human IgG1, kappa)
heavy 1: not shown
heavy 2: not shown
light: B1 light
notes: as for B1
B8: GpH7-A5/GpH7-B3 variant S267_03V/GpL16-k0 (antibody, human IgG1, kappa)
heavy 1: not shown
heavy 2: not shown
light: B1 light
notes: as for B1
B9: GpH7-A5/GpH7-B3 variant S267_04F/GpL16-k0 (antibody, human IgG1, kappa)
heavy 1: not shown
heavy 2: not shown
light: B1 light
notes: as for B1
B10: GpH7-A5/GpH7-B3 variant S267_05P/GpL16-k0 (antibody, human IgG1, kappa)
heavy 1: not shown
heavy 2: not shown
light: B1 light
notes: as for B1
B11: GpH7-A5/GpH7-B3 variant S267_06M/GpL16-k0 (antibody, human IgG1, kappa)
heavy 1: not shown
heavy 2: not shown
light: B1 light
notes: as for B1
B12: GpH7-A5/GpH7-B3 variant S267_07I/GpL16-k0 (antibody, human IgG1, kappa)
heavy 1: not shown
heavy 2: not shown
light: B1 light
notes: as for B1
B13: GpH7-A5/GpH7-B3 variant S267_08L/GpL16-k0 (antibody, human IgG1, kappa)
heavy 1: not shown
heavy 2: not shown
light: B1 light
notes: as for B1
B14: GpH7-A5/GpH7-B3 variant S267_09D/GpL16-k0 (antibody, human IgG1, kappa)
heavy 1: not shown
heavy 2: not shown
light: B1 light
notes: as for B1
B15: GpH7-A5/GpH7-B3 variant S267_10E/GpL16-k0 (antibody, human IgG1, kappa)
heavy 1: not shown
heavy 2: not shown
light: B1 light
notes: as for B1
B16: GpH7-A5/GpH7-B3 variant S267_14T/GpL16-k0 (antibody, human IgG1, kappa)
heavy 1: not shown
heavy 2: not shown
light: B1 light
notes: as for B1
B17: GpH7-A5/GpH7-B3 variant S267_15Y/GpL16-k0 (antibody, human IgG1, kappa)
heavy 1: not shown
heavy 2: not shown
light: B1 light
notes: as for B1

Biological target: T1, FcγRIIa H
Assay: SPR (Biacore), relative binding vs GpH7-A5/GpH7-B3/GpL16-k0

Row | Binder | He/Con_2aH
1 | B1 | 97 % of control He Ab (=100)
2 | B2 | 98.8 % of control He Ab (=100)
3 | B3 | 107 % of control He Ab (=100)
4 | B4 | 70.1 % of control He Ab (=100)
5 | B5 | 63.1 % of control He Ab (=100)
6 | B6 | 60.9 % of control He Ab (=100)
7 | B7 | 120 % of control He Ab (=100)
8 | B8 | 50.8 % of control He Ab (=100)
9 | B9 | 22.7 % of control He Ab (=100)
10 | B10 | 25.1 % of control He Ab (=100)
11 | B11 | 34.3 % of control He Ab (=100)
12 | B12 | 34.7 % of control He Ab (=100)
13 | B13 | 29 % of control He Ab (=100)
14 | B14 | 105 % of control He Ab (=100)
15 | B15 | 102 % of control He Ab (=100)
16 | B16 | 63.3 % of control He Ab (=100)
17 | B17 | 19.6 % of control He Ab (=100)

Biological target: T2, FcγRIIb
Assay: as above

Row | Binder | He/Con_2b
18 | B1 | 155 % of control He Ab (=100)
19 | B2 | 126 % of control He Ab (=100)
20 | B3 | 193 % of control He Ab (=100)
21 | B4 | 120 % of control He Ab (=100)
22 | B5 | 109 % of control He Ab (=100)
23 | B6 | 95.4 % of control He Ab (=100)
24 | B7 | 243 % of control He Ab (=100)
25 | B8 | 192 % of control He Ab (=100)
26 | B9 | 48 % of control He Ab (=100)
27 | B10 | 31.5 % of control He Ab (=100)
28 | B11 | 210 % of control He Ab (=100)
29 | B12 | 192 % of control He Ab (=100)
30 | B13 | 109 % of control He Ab (=100)
31 | B14 | 310 % of control He Ab (=100)
32 | B15 | 379 % of control He Ab (=100)
33 | B16 | 104 % of control He Ab (=100)
34 | B17 | 37.9 % of control He Ab (=100)

Biological target: T1, FcγRIIa H
Assay: SPR; He/Con_2aH divided by He/Con_2b (FcγRIIb)
Procedure: The heterodimerized antibodies He Abs in which one of the H chains was introduced with an alteration were assayed for their binding activities to each activating FcγR and inhibitory FcγR according to the method described in Example 4. […] The activating FcγRs in FIGS. 26, 27, 28, and 29 are FcγRIa, FcγRIIa (R), FcγRIIa (H), and FcγRIIIa, respectively.
Analysis of interaction between objective antibody and the FcγR was carried out using Biacore T100 (GE Healthcare). HBS-EP+ (GE Healthcare) was used as the running buffer, and the measurement temperature was set to 25° C. Chips produced by immobilizing the antigen peptide by the amine coupling method to a Series S Sencor Chip CM5 (GE Healthcare), or alternatively, chips produced by allowing preliminarily biotinylated antigen peptides to interact with and immobilize onto a Series S Sensor Chip SA (certified) (GE Healthcare) were used. Antibodies of interest were captured onto an antigen peptide-immobilized chip, and allowed to interact to each FcγR diluted with running buffer. To regenerate and repeatedly use the chip, the antibodies captured on the chip were washed off by reacting 10 mM glycine-HCl, pH 1.5.

Row | Binder | He_2aH/2b (IIaH/IIb)
35 | B1 | 0.63 ratio
36 | B2 | 0.79 ratio
37 | B3 | 0.55 ratio
38 | B4 | 0.58 ratio
39 | B5 | 0.58 ratio
40 | B6 | 0.64 ratio
41 | B7 | 0.49 ratio
42 | B8 | 0.26 ratio
43 | B9 | 0.47 ratio
44 | B10 | 0.8 ratio
45 | B11 | 0.16 ratio
46 | B12 | 0.18 ratio
47 | B13 | 0.27 ratio
48 | B14 | 0.34 ratio
49 | B15 | 0.27 ratio
50 | B16 | 0.61 ratio
51 | B17 | 0.52 ratio
